Results as given in patent publication US20100191096A1, “PARAMAGNETIC BIOMOLECULE COMPLEXES AND USES THEREOF IN THE ASSESSMENT OF ORGAN FUNCTION” (priority 2007, published 2010).

Experiments:
renal cortex = assay: T1 weighted MRI of rat kidneys after i.v. contrast agent (contrast enhancement in renal cortex); details: 20 minutes after 30 seconds in vivo i.v. infusion of 800 μl Ringer solution containing ~1 mg complex
Experimental: The MRI hardware used to obtain the date in the figures described below is a Pharmascan 7T small animal MR scanner (from Bruker Biospin MRI GmbH, Ettlingen, Germany). The software is Paravision version 4 (from Bruker Biospin MR GmbH). Dynamic imaging was performed using a Flash sequence, with 2 mm slice thickness, 256×256 matrix, field of view (FOV) 6 cm, TR15.576 ms, TE3.7 ms, 250 evolution cycles, scan time 12 mins 27 sec. T1 weighted imaging was performed using a Flash T1 sequence, with 2 mm slice thickness, 256×256 matrix, FOV 6 cm, TR15.57 ms, TE3.7 ms, 10 averages, scan time 30 secs. T2 weighted imaging was performed using a Turbo RARE T2 sequence, with 2 mm slice thickness, 256×256 matrix, FOV 6 cm, TR4200 ms, TE36 ms, 3 averages, scan time 6 mins 47 secs.

[1] = tested on: kidney (glomeruli, proximal tubular cells); details: cited from earlier work

Substance | contrast enhancement, T1 weighted MRI of coronal sections of rat kidneys (ex vivo) (renal cortex) | time at which breakdown products can be detected in plasma after i.v. injection ([1]; labelled aprotinin, i.v. injection) | renal handling of native aprotinin (filtration, tubular uptake) ([1]; rat, in vivo)
Gd-DTPA-Lysozyme: Complex of chicken egg white lysozyme linked via DTPA chelator to Gadolinium, Example 2 standard protocol | selectively enhanced the contrast in the renal cortex |  | 
aprotinin |  | 20 min | freely filtered in the glomeruli and quantitatively taken up into proximal tubular cells
